The values that follow come from patent US20250263490A1 (VIB VZW, published 2025).

Assay [1] addresses T1, recombinant human domain 1-3His6 of the cation-independent mannose-6-phosphate receptor (human, UniProt P11717 41-467).
T1 construct: Biotinylated (NHS-PEG4-biotin) for BLI; Glycosylated; also called hDom1-3His6; hCI-M6PRD1-D3
Briefly: in-tandem competitive BLI, biotinylated hDom1-3His6 on SA sensors, purified VHH at 400 nM.

The target of assay [2] is T1, recombinant human domain 1-3His6 of the …. Briefly: ELISA on coated antigen (100 ng), anti-VHH-HRP, A450. How it is done: (§1) To determine the effect of site-directed mutations, an ELISA was performed. To this end, 100 ng of each successfully purified mutant was coated per well on Nunc Maxisorp plates in 50 mM MES, 150 mM NaCl, pH 6.5 buffer overnight at 4° C. […] Coating-only controls were included for background correction. […] Reactions were stopped after five minutes using a 2N H₂SO₄ solution and plates were read at 450 nm, with a 655 nm background correction. Data were analyzed using the GraphPad Prism 9 software.

Assay [3] shares this target. The description is as above. How it is done: as §1
This is another data set of the same source.

The target is the same in assay [4]. Briefly: BLI exp 1, dissoc pH 7. The method, then:
(§2) For each of the 11 anti-CI-M6PR VHHs, a biolayer interferometry (BLI) experiment was performed in which the hDom₁₋₃His₆ was biotinylated and coupled to streptavidin biosensor tips. Afterwards, the tips were incubated with serially diluted VHHs during the association phase and dissociation was performed at pH 7.4. Similarly, dissociation was performed at pH 7.0, pH 6.0 and pH 5.0 as well after regeneration of the biosensor tips. […] The anti-CI-M6PR antibody (clone 2G11) and GBP were used as positive and negative controls, respectively.
(§3) Analysis of the binding kinetics was performed using an Octet Red96 (FortéBio) device with Streptavidin SA Biosensor tips (VWR 733-2145). Therefore, 1 mL of human domain₁₋₃His₆ (0.5 mg/mL in 50 mM MES, 150 mM NaCl, pH 6.5) was incubated at room temperature for 30 minutes with EZ-Link™ NHS-PEG4-Biotin (1 mg) (Thermo Fischer A39259) and NaHCO₃ (100 mM). Biotinylated human domain₁₋₃His₆ was purified using a Zeba spin desalting Column™ (7K MWCO, 2 mL, Thermo Fischer 89890) and 1 μg/mL was used for immobilization on the Streptavidin SA Biosensor tips. The loaded tips were dipped into a particular anti-CI-M6PR VHH solution, serially diluted in kinetics buffer (0.2M NaH₂PO₄, 0.1M Na⁺ citrate, 0.01% BSA, 0.002% Tween20, pH 7.4). This was followed by dissociation of the particular anti-CI-M6PR VHH in kinetics buffer of pH 7.4, followed by regeneration in Glycine (10 mM, pH 3) and neutralisation. Same cycle was repeated but the dissociation was performed at pH 7.0, 6.0, 5.0, 4.5 and 4.0. A reference well and reference sensors were subtracted from ligand sensors afterwards and Savitsky-Golay filtering was applied on the data. Fitting of the data was performed using a 1:1 model, grouped per pH of dissociation.

Assay [5] shares this target. Briefly: BLI exp 2, dissoc pH 5. The method, then: as §2
(§4) Analysis of the binding kinetics was performed using an Octet Red96 (FortéBio) device with Streptavidin SA Biosensor tips (VWR, 733-2145). To this end, 1 mL of hCI-M6PR_D1-D3 (0.5 mg/mL in 50 mM MES, 150 mM NaCl, pH 6.5) was incubated at room temperature for 30 minutes with a two-fold molar excesses of EZ-Link™ NHS-PEG₄-Biotin (Thermo Fischer, A39259) and NaHCO₃ (100 mM, pH 8.3). Biotinylated hCIMPR_D1-D3 was purified using a Zeba spin desalting column (Thermo Fischer, 89890) and protein concentration was calculated by measuring the absorbance at 280 nm (extinction coefficient 50320 M¹ cm⁻¹). Two-fold biotin-labelled antigen was loaded on the tips (2.5 μg/mL) and subsequently dipped into a particular anti-CI-M6PR VHH-containing solution (ranging from 0-100 nM). Serial VHH dilutions were made in kinetics buffer (0.2 M Na₂HPO₄, 0.1 M Na⁺ citrate, 0.01% BSA, 0.002% Tween20, pH 7.4). After association (100 sec), dissociation was conducted (500 sec) for each anti-CI-M6PR VHH in the kinetics buffer, followed by biosensor regeneration in glycine (10 mM, pH 3) and neutralisation. The same cycle was repeated with dissociation performed in kinetics buffer of pH 7.0, 6.5, 6.0, 5.5, and 5.0.
(§5) A reference well and reference sensors were subtracted from ligand sensors afterwards and Savitsky-Golay filtering was applied on the data. Fitting of the data was performed using a 1:1 model, grouped per dissociation pH.

The target is the same in assay [6]. Briefly: ELISA on coated antigen, 2nd of 2 repeats. How it is done:
(§6) FIGS. 4A-4B. Affinity of anti-CI-M6PR VHHs for recombinant human CI-M6PR Domain 1-3His₆ determined by ELISA. A & B. Measurements for each of the 11 anti-CI-M6PR VHHs in serial dilution binding to the coated human CI-M6PR Domain 1-3His₆ antigen. Detection was performed using an anti-VHH antibody coupled to HRP, and measured as the absorbance of the TMB substrate at 450 nm, correlating to the amount of bound VHH as plotted at the Y-axis. The Log₁₀ concentrations of the serially diluted VHHs were plotted at the X-axis. […] A & B represent replicates but using a different concentration of human CI-M6PR Domain 1-3His₆ (in (FIG. 4A): 0-0.75 μM and in (FIG. 4B): 0-1 μM).
(§7) We evaluated the affinity of the VHHs against the hDom₁₋₃His₆ using ELISA. Coated hDom₁₋₃His₆ was incubated with serially diluted VHH that was afterwards detected using an anti-VHH antibody, coupled to HRP.

Assay [7] has the same target. Briefly: BLI exp 1, dissoc pH 7.4. The method, then: as §2, §3
For assay [8] the target is unchanged. Briefly: ELISA on coated antigen, 1st of 2 repeats. The method, then: as §6, §7
Assay [9] has the same target. Kind of assay: BLI at pH 7.4, 1st of 2 repeats. How it is done:
as §2, §3

Assay [10] shares this target. Kind of assay: BLI exp 1, dissoc pH 5. How it is done: as §2, §3
For assay [11] the target is unchanged. Kind of assay: BLI exp 2, dissoc pH 7.
The target is the same in assay [12]. Briefly: BLI exp 2, dissoc pH 6. How it is done:
as §2, §4, §5

For assay [13], the target named is T2, recombinant mouse domain 1-3His6 of CI-M6PR (mouse, UniProt Q07113 36-418).
T2 construct: Genbank NM_010515.2); Range includes the signal peptide; also called mDom1-3His6; mCI-M6PRD1-D3
Briefly: ELISA: coated mouse CI-M6PR Domain 1-3His6, serially diluted VHH, anti-VHH-HRP, TMB, Abs 450 nm; sigmoidal regression [table at the right]. The method, then: FIGS. 5A-5B. Affinity of anti-CI-M6PR VHHs for recombinant mouse CI-M6PR Domain 1-3His₆ determined by ELISA. (FIG. 5A) Measurement for each of the 11 anti-CI-M6PR VHHs in serial dilution binding to the coated mouse antigen. Detection was performed using an anti-VHH antibody coupled to HRP, and measured as the absorbance of the TMB substrate at 450 nm, correlating to the amount of bound VHH as plotted at the Y-axis. The Log₁₀ concentrations of the serially diluted VHHs were plotted at the X-axis.
To evaluate the cross-reactivity of the anti-CI-M6PR nanobodies between the human and mouse CI-M6PR domain 1-3His₆ antigen, ELISA was performed with the eleven serially diluted anti-CI-M6PR nanobodies. […] By performing sigmoidal regression on the derived absorbance curves, half-maximal effective concentration (EC₅₀) values of each VHH were acquired, representing the required concentration to occupy 50% of the coated antigen. As a negative control, GBP was included in the assay.

For assay [14], the target named is T1, recombinant human domain 1-3His6 of the …. Briefly: BLI exp 1, dissoc pH 6. The method, then: as §2, §3

Residue numbers refer to the chain shown, from its start. Like-named read-outs stand apart in the source and are kept apart here.

T2 sequence (Q07113 other isoform, or with tags, fused parts or gaps): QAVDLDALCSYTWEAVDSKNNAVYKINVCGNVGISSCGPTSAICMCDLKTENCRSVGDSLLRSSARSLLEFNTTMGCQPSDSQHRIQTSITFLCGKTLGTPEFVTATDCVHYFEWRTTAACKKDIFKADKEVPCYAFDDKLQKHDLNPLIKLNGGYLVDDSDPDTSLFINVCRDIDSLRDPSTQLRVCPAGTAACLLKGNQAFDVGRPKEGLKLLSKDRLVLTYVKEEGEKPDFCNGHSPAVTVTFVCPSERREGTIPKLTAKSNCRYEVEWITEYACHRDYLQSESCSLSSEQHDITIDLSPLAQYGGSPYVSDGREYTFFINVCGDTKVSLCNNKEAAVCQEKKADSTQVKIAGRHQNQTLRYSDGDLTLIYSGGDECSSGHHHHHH

B1: humanized VHH7 variant VHH7 h3 (VHH)
VHH: DVQLVESGGGLVQPGGSLRLSCAASGIIFSDNRMDWYRQAPGKQREWVATLASYGWKTYADSVKGRFTISRDNTKNTVYLQMNSLRPEDTAVYYCKASSPVLNDIWGQGTLVTVSS
notes: made in E. coli
Turning to B1, the binding result in assay [1] is given as “binds”.

B2: humanized VHH7 variant VHH7 h1 (VHH)
VHH: B1 VHH with D1E, T74S
notes: made in E. coli
For B2, the binding result in assay [1] is reported as “binds”.

B3: humanized VHH7 variant VHH7 h2 (VHH)
VHH: B1 VHH with T74S
notes: made in E. coli
Consider B3, for which the binding result in assay [1] is “binds”.

B4: humanized VHH7 variant VHH7hWN (VHH)
VHH: B1 VHH with T74A
notes: His6-tagged, made in HEK293S
With B4, the “EC50 (read off the curve)” value in assay [2] and in assay [3] was around 0.5 nM in each case.

B5: anti-CI-M6PR VHH2 (VHH)
VHH: QVQLQESGGGLVQPGGSLRLSCVFSGRTFMSYDVGWFRQAPGKERELLSSITSSSSSPYYAESVKGRFAVSRDGAKKTVYLRMNSLEPEDTAVYYCAARENWRNDWQYWGQTQVTVSS
notes: His6-tagged; made in Pichia pastoris
Regarding B5, the Kd in assay [4] was found to be 24.2 nM; in assay [7], 5.3 nM; in assay [9], 5.3 nM; in [10] it was 10 nM; in assay [14], 5.96 nM. The koff in [4] amounted to 0.0161 s⁻¹; in [5], 0.074 s⁻¹; in [7], 0.0036 s⁻¹; in assay [9], 0.0036 s⁻¹; in [10], 0.00746 s⁻¹; in [11], 0.0136 s⁻¹. Also, the koff is 0.0748 s⁻¹ in assay [12] and 0.00513 s⁻¹ in [14]. Further, the kon in [4] stood at 665000 M⁻¹ s⁻¹; in [5], 745000 M⁻¹ s⁻¹; in assay [7], 679000 M⁻¹ s⁻¹; in assay [9] it was 679000 M⁻¹ s⁻¹; in assay [10], 745000 M⁻¹ s⁻¹; in [11] it was 1.56e+06 M⁻¹ s⁻¹. In addition, the kon in assay [12] was determined as 3.76e+06 M⁻¹ s⁻¹; in assay [14], 862000 M⁻¹ s⁻¹. For the same molecule, the EC50 in [6] worked out at 0.177 nM; in assay [8] it was 0.0608 nM; in [13], 104 nM.

B6: humanized VHH8 variant VHH8 h2 (VHH)
VHH: DVQLVESGGGLVQPGGSLRLSCAASGRTFNTYNWGWFRQAPGKEREFVAAIRWSSSKTSYADSVKGRFTISRDNSKNTVYLQMNSLRPEDTAVYYCAASIVDFTTNPSHFGSWGQGTLVTVSS
notes: made in E. coli
In the case of B6, in assay [1], the binding result is reported as “binds”.

B7: humanized VHH8 variant VHH8hWN (VHH)
VHH: B6 VHH with S75A, V79I
notes: His6-tagged, made in HEK293S
In the case of B7, the “EC50 (read off the curve)” value in assay [2] and in assay [3] was around 3 nM in each case.

B8: humanized VHH8 variant VHH8 h1 (VHH)
VHH: B6 VHH with D1E
notes: made in E. coli
For B8, the binding result in [1] is listed as “binds”.

B9: humanized VHH8 variant VHH8 h3 (VHH)
VHH: B6 VHH with P14A
notes: made in E. coli
For B9, in assay [1], the binding result is recorded as “binds”.
